Target: FcαRI (CD89) (human (endogenous in primary monocytes)) (UniProt P24071)
Chain of UniProt P24071 (P24071 22-287): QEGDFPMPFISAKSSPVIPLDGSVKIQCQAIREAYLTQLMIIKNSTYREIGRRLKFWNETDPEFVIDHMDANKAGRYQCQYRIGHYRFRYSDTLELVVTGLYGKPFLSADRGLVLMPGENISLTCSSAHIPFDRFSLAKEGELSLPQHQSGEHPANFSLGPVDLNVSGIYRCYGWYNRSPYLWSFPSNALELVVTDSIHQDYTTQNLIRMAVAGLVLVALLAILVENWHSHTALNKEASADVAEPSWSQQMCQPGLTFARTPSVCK

CH31 dIgA2 (antibody) was tested, and the percent blocking of IgA-mediated phagocytosis of 0.2 μm ConSgp140-conjugated beads by primary monocytes pre-incubated with 5 μg/ml anti-human CD89 mAb (MIP8a) was 91.5% and the percent blocking of IgA-mediated phagocytosis of ConSgp140CFI-conjugated 1 μm beads by primary monocytes pre-incubated with anti-human CD89 mAb (MIP8a) at 1, 5 and 25 μg/ml (70%, 74%, 78%) was 78%.

Source: PMC5007037
